# Measurements: publication PMC8196010 (Communications Biology, 2021)
# No end group written: not given here.
# B1: PALS1 255-336, Q8N3R9 (protein)
# chain: KIVRIEKARDIPLGATVRNEMDSVIISRIVKGGAAEKSGLLHEGDEVLEINGIEIRGKDVNEVFDLLSDMHGTLTFVLIPSQ
# Assays:
# [1] = target: recombinant human PALS1 PDZ (residues 255-336) (Homo sapiens, UniProt Q8N3R9); assay: biochemical; format: binding
# [2] = target: SARS-CoV-2 E protein C-terminal PBM (Severe acute respiratory syndrome coronavirus 2) (UniProt P0DTC4); conditions: cited from earlier work
# [3] = target: SARS-CoV-1 E protein C-terminal PBM (Severe acute respiratory syndrome coronavirus) (UniProt P59637); conditions: cited from earlier work
# [4] = target: SARS-CoV-2 E protein PBM (Severe acute respiratory syndrome coronavirus 2); assay: ITC
# [5] = target: SARS-CoV-1 E protein PBM (Severe acute respiratory syndrome coronavirus); assay: ITC
molecule,measurement,setting,value
EGVPDLLV [SARS-CoV-2 PBM],Kd,[1],22.8 ± 1.2 µM
PALS1 PDZ (from UniProt Q8N3R9),Kd,[2],40 µM
same,Kd,[3],130 µM
SRVPDLLV [SARS-CoV-1 PBM],Kd,[1],29.6 ± 2.3 µM
B1,Kd,[4],22.8 µM
same,Kd,[5],29.6 µM
